Data published in doi:10.1101/858225, “FANCD2-FANCI is a clamp stabilized on DNA by monoubiquitination during DNA repair” (bioRxiv, 2019).

B1: StrepII-tagged Gallus gallus FANCD2 (expressed alone) (natural protein, UniProt Q68Y81 1-1439, looked up)
chain: MVSKRKLSKIDAAEESSKTDLQSRCPETKRSRISDKRAPSQGGLENEGVFEELLRTSGIILKVGEGQNEIAVDQTAFQKKLRVALEKHPSYPGVVNEFISGLESHIKDRSQFKNCLLPCTPARTEGSRTLVHSYCESLIKLLLGIKILQPAVVTLLLEKIPEFFFDVVGTFGTNFPRLIVNQFKWLDGLLDSQDLVKKLMQMLSVSPVPIQHDIITSLPEILEDSQQNEVARELSCLLKQGRRLTVPILDALSRLDLDAELLAEVRQSAMTIVPSVKLEDLPVVIKFILHNVKAADAVEVISDLRKSLDLSSCVLPLQLLGSQRKLKSQAQASSSMSQVTTSQNCVKLLFDVIKQAVRFQKDVSEAWIKAIENSTSVSDHKVLDLIVLLLIHSTNSKNRKQTEKVLRSKIRLGCMPEQLMQNAFQNHSMVIKDFFPSILSLAQTFLHSAHPAVVSFGSCMYKQAFAVFDSYCQQEVVCALVTHVCSGNETELDISLDVLTDLVILHPSLLLRYATFVKTILDSMQKLNPCQIRKLFYILSTLAFSQRQEGSYIQDDMHMVIRKWLSSSVPNHKQMGIIGAVTMMGSVALKRNEADGGLLERPELSIECDGQLSTLLDLVGFCCEQTPEVLALYYDELANLIEKQKGNLDLQLLDKFGKSLVEDFPNDFVVDLSPTVDGSFLFPVKSLYNLDEDETQGAIAINLLPLVSQSEPGRVADEMSNSRKRVVSPICLSPCFRLLRLYTGEQNNGSLEEIDALLGCPLYLTDLEVEGKLDSLSKQEREFLCSLLFYALNWFREVVNAFCQQQDAEMKGKVLTRLQNITELQNVLGKCLAATPGYVPPPATFDSEAPEGVPSINAGGPVRKKNGKKRKSDSSKACSAERTQADESSDGNQPDTELSELEKSATEKETGNPLAQLQSYRPYFRELDLEVFSVLHCGLLTKSILDTEMHTEASEVVQLGPAELCFLLDDMCWKLEHVLTPGSTRRVPFLKERGNKDVGFSHLCQRSPKEVAVCVVKLLKPLCNHMENMHNYFQTVIPNQGVVDESGLNIQEYQLMSSCYHQLLLAFRLLFAWSGFSQHENSNLLRSALQVLADRLKPGETEFLPLEELISESFQYLLNFQASIPSFQCAFILTQVLMAISEKPMTGWKREKMASLAKQFLCQSWMKPGGDREKGSHFNSALHTLLCVYLEHTDNILKAIEEISSVGVPELINSAKDGCSSTYPTLSRQTFPVFFRVMMAQLESSVKSIPAGKPSDSGEVQLEKLLKWNIAVRNFHILINLVKVFDSRPVLSICLKYGRLFVEAFLKLAMPLLDHSFKKHRDDVQSLLKTLQLSTRQLHHMCGHSKIHQDLGLTNHVPLLKKSLEQFVYRVKAMLAFNHCQEAFWVGVLKNRDLQGEEILSQASAAPEEDSAEGSEEDTADSAAEEPDGTDSDSGGAGR
notes: FANCD2, Gallus gallus, full length cDNA synthesized (GeneArt); C-terminal extension with a 3C protease site before the double StrepII tag; no cleavage is described; also called FANCD2 homodimer; D2-D2; source: Sf9, purified (Strep-Tactin, heparin, Superdex 200); not shown: double StrepII, C-terminal, kept
B2: His-tagged Gallus gallus FANCI (expressed alone) (natural protein, UniProt B0I564 1-1338, looked up)
chain: MAQRILQLAAEGSPERLQEALQGLTEGELGDMVTRQALRGRETAALLKGIFKGSPCSQQSGVLRRLQVYKHCVSLVESGDLHVGKVSEIIGLLMLEARQLPGHALAELATLFVEVIKRGSLSNGKSLELFSTVLTALSNSKESLAYGKGELNGEEFKKQLINTLCSSKWDPQCVIHLANMFRDIPLSGEELQFVVEKVLRMFSKLDLQEIPPLVYQLLLLSAKGSKKTVLEGIISFFNQLDKRQKEEQRVPQSADLEVATVPLDQLRHVEGTVILHIVSAINLDQDIGEELIKHLKTEQQKDPGKALCPFSVSLLLSTAVKHRLQEQIFDFLKTSITRSCKDLQILQASKFLQDLCPQQYDVTAVILEVVKNSAFGWDHVTQGLVDLGFSLMESYEPKKSFGGKAAETNLGLSKMPAQQACKLGASILLETFKVHEPIRSDILEQVLNRVLTKAASPVSHFIDLLSNIVVSAPLVLQNSSSRVTETFDNLSFLPIDTVQGLLRAVQPLLKVSMSVRDSLILVLQKAIFSRQLDARKAAVAGFLLLLRNFKILGSLTSSQCSQAIGATQVQADVHACYNSAANEAFCLEILGSLRRCLSQQADVRLMLYEGFYDVLRRNSQLASSIMETLLSQIKQYYLPQQDLLPPLKLEGCIMAQGDQIFLQEPLAHLLCCIQHCLAWYKSTVHLCKGAEDEEEEEDVGFEQNFEEMLESVTRRMIKSELEDFELDKSADFSPSSGVGVKNNIYAIQVMGICEVLIEYNFKIGNFSKNKFEDVLGLFTCYNKLSEILKEKAGKNKSTLGNRIARSFLSMGFVSTLLTALFRDNAQSHEESLAVLRSSTEFMRYAVSVALQKVQQLEEMGQTDGPDGQNPEKMFQNLCKITRVLLWRYTSIPTAVEESGKKKGKSISLLCLEGLLRIFNTMQQLYAARIPQFLQALDITDGDAEEADINVTEKAAFQIRQFQRSLVNQLSSAEDDFNSKETQLLITILSTLSKLLDPGSQQFLQFLTWTVKICKENALEDLSCCKGLLTLLFSLHVLYKSPVSLLRELAQDIHACLGDIDQDVEIESRSHFAIVNVKTAAPTVCLLVLGQADKVLEEVDWLIKRLTILGSDTSEDSTQASNQTQALEKGVILQLGTLLTVFHELVQTALPAGSCVDSLLRSLSKTYAILTSLIKHYIQACRSTSNTVPGRLEKLVKLSGSHLTPQCYSFITYVQNIHSESLSFAEEKKKKKKEDETAVVSTVMAKVLRDTKPIPNLIFAIEQYEKFLIHLSKKSKVNLMQYMKLSTSRDFRINASMLDSVLQEQNTEDAENEPDNNQSGTAEQPDENQEPQKKRRRKK
notes: FANCI, Gallus gallus, full length cDNA synthesized (GeneArt); C-terminal extension with a 3C protease site before the 6x His tag; no cleavage is described; The results call the FANCI of the pull-down 'untagged', the methods 'His-tagged'; also called free FANCI; monomeric FANCI; source: Sf9, purified (HisTrap, heparin, Superdex 200); not shown: 6x His, C-terminal, kept

How the values were obtained:
[1] = molecular target: the molecule itself; test: SEC; Superdex 200 10/300, 50 mM HEPES pH 7.5, 150 mM NaCl, 1 mM TCEP; 300 µl of each protein at 1 µM; mix of 0.5 µM FANCD2 with 1 µM FANCI incubated 30 min at room temperature; fractions by SDS-PAGE
[2] = molecular target: B1; test: pull-down; StrepII-tagged FANCD2 held on StrepTactin Sepharose, FANCI added at FANCD2:FANCI molar ratios 1:0 to 1:5 and 0:5; 50 mM HEPES pH 7.5, 150 mM NaCl, 1 mM TCEP; 15 min room temperature, 30 min 4 °C on resin, two washes; bound fraction by SDS-PAGE; conditions: both partners purified

Binder	stoichiometry N [1]	stoichiometry N [2]
B1	2	
B2		~1
